Data as given in the supplement of paper PMC9170038.

Tested on: K4 kissing-loop RNA reporter
Assay: apparent KD of K4 kissing-loop reporter; higher = weaker reporter binding
Details: Eterna round: R107
Description: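 RNA-MaP round R107: designed RNA switches with theophylline, tryptophan, arginine or FMN aptamers are transcribed on-chip within common flanks. They are titrated with a labelled K4 kissing-loop RNA reporter in RNA-MaP buffer (100 mM Tris pH 7.5, 80 mM KCl, 4 mM MgCl2), without ligand or with the indicated ligand. Median apparent KD per design.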

[1] = input ligand: theophylline 20 uM
[2] = input ligand: tryptophan 2.4 mM
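Note: bound reporter read as fluorescence of individual clusters on recovered sequencing chips by microscopy, with normalized cluster intensities fitted with a binding model.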

Row | Sequence | apparent KD of K4 kissing-loop reporter (input ligand: FMN 200 uM) [nM] | apparent KD of K4 kissing-loop reporter (input ligand: arginine 13.2 mM) [nM] | apparent KD of K4 kissing-loop reporter (input ligand: none) [nM] | apparent KD of K4 kissing-loop reporter [1] [nM] | apparent KD of K4 kissing-loop reporter [2] [nM]
1 | ACGUAGUACGUAGGAUAUCAGAGAUCAGUUAGUGAGAUCGAGUGAUGUUCGAUCAUGUGUUCAUUUUGAGAAGGAUGUAGUAGGA [KL-SSFMN-B6] | 302 | 302 | 366 | 358 | 228
2 | AAUCCUAACGGAGUGAUGUUCCGUAGCGAUACCAGCCAUUGCGAUGGCCCUUGGCAGCGCUAUAAGCAUUGCUAGUAAGGGCCAA [Theo A Ex t7] | 167 | 148 | 168 | 163 | 159
3 | AGUGGACGUGUCUGGAGUGAUGUUCUGGAUACCAGACACGAAAGUGUCCCUUGGCAGCCGGAGUGAUGUUCCGGCGUUCACUAAA [Omei KL Theo A Exc B v5] | 462 | 239 | 402 | 396 | 307
4 | CGCGCGGGUUUGAGAGGGUUUGCGCGAAGUGAGGAUAUUUAGGGAGAAAGAAGGCACUAUAAAAUAUAGUGAUGUUAUAUAAGGG [SSFMNA.I] | 627 | 117 | 251 | 139 | 269
5 | AUGUCUAAUACGGCCGCCACUCGAGCAGUGAUGUUGCUCAGUAAUGGUCAUCGUCGUACAUGCCCGAGGACCGGGUAUUGAUUUG [Remain] | 147 | 122 | 140 | 145 | 175
6 | AGCUCAGAGUGACUCGAUAAGAGUCACAAACGAGGACCGGUACGGCCGCCACUCGAAAUAAGGAGAGUGAUGUUCUCGCUGAGCA [FiskerMod 8 - Jieux - Same State Tryptophan A] | 454 | 81.5 | 124 | 35.1 | 345
7 | UAGGGCAUCGCAGGAUAUCCUGCUUAACGUUGGAUUCCAGUGAUGUUGGAAAGCCGGCCUAGGGUAGGAGAAGGGCGGACUUGAA [Riteteve] | 160 | 167 | 167 | 187 | 242
8 | UUAGUCUAGAGAAGGAGCGAGUGAUGUUUGCUAAGAUCUAUGAUAUCAUAGAUCAAAUUUACUCAGGUAGGUCGCUCUAGACAUU [AK4 Exc Arginine B] | 294 | 53.1 | 182 | 165 | 137
9 | GCAGGACGAGGAGGAGGAUGAAUUACUGAAGGAGCGCAUAUUUUUGCAGGUAGGUCGCGGUAAACAAGUAUAGUGAUGUUAUAUC [SSArgA.N] | 445 | 234 | 372 | 459 | 442
10 | UAUACUAGACAAGAGAGAAUUCUCUCAAGAGAGGAUAUCCGAAUUCGGAGAAGGCUCGCUAAGUGAUGUUUGGAAUAGUCUAGAA [AK4 SS FMN A] | 418 | 352 | 339 | 319 | 384
11 | CGCAGUGAUGUUGCUAUUAUUCUUGGUUAACGAGGACCGGUACGGCCGCCACUCGAUGUCUGUCUAGUCCAGUGUUUUUUUGAGU [whbob_EX_Tryp_A_t8] | 351 | 467 | 506 | 579 | 228
12 | UCGUCUGUGUGAGGAUAUCCAAGCGAGCUGCGUACAGGUGCGGCGUUUGGAGUGAUGUUCCAGGCAGGAGAAGGCGCACGGGCUU [Esored] | 191 | 247 | 284 | 285 | 251
13 | AAUACGAAGCAGUGAUGUUGCUUAUGAGAAGGAGCGCACGAAAGUGCAGGUAGGUCGCUCAGCCAUGUGGACGAAAACGUCCACA [whbob_SS_Arginine_A_sa109] | 83.3 | 102 | 89.2 | 102 | 80.5
14 | GCAUGAUAGUAAGGAUAUAGAUAAUCCUUAUAUAUAUCGAGUGAUGUUCGAUGUGCCAAGGUACAUCUAGAAGGUACUGUAAGGU [Same State FMN B GF 17] | 265 | 288 | 257 | 355 | 239
15 | AUGCUUCAGUAAGGAUAUGGAGGCAGAGUGAAGAUUGUCGUGUAACCGAGUUAAGUGAUGUUUGAUCCAGAAGGUACAUGCGUGU [theeternabot_exclusion_KL_FMN_B_15] | 926 | 561 | 885 | 379 | 605
16 | AACUCUCACUGGAGUGAUGUUCUGGAAAACCGAGGACCGGUACGGCCGCCACUCGGAAAUGAGAGAGUCCUACGAAAAGUAGGAC [Omei inspired 1] | 191 | 213 | 217 | 255 | 139
17 | GGGAGUAGUGCGGCCGCCACUGAGAAAGAAGAAGAAUAUAGUGAUGUUAUAUAGGAAUUAAAGAACAGGACCGGGCAUUAGAUUU [SSTRyptB.O] | 210 | 208 | 219 | 163 | 143

Row | Sequence | apparent KD of K4 kissing-loop reporter (input ligand: FMN 200 uM) [nM] | apparent KD of K4 kissing-loop reporter (input ligand: arginine 13.2 mM) [nM] | apparent KD of K4 kissing-loop reporter (input ligand: none) [nM] | apparent KD of K4 kissing-loop reporter [1] [nM] | apparent KD of K4 kissing-loop reporter [2] [nM]
18 | AACCACUCGUUACAUCACUAUCGAGUGGAACGAGGACCGGUACGGCCGCCACUCGAAUAGAUGCAGUGAUGUUGCAUCUUGGAAU [KL-SSTryp-A (BrourdMod)4 #dotplot2 strengthened] | 181 | 141 | 163 | 156 | 132
19 | AACUUAAUUUAUAAGCAGUGAUGUUGCUCACGAGGACCGGUACGGCCGCCACUCGAUCGGACUUAGGUCUUCAAUUAUUUCUUAA [JR_ExcTryptoA_Sub018] | 114 | 157 | 137 | 140 | 121
20 | UGACAUUGCUCAGAUACCAGACAUGAGCAUCAGCCAUGUGCCAAACGUACAAUAAUAAAUGUCCCUUGGCAGCUGAGCAAUGUCU [TheoBX 14] | 74.2 | 33.1 | 53.1 | 100 | 44.8
21 | GCAGUGAUGUUGCGCGGGUACGGUAGAGUACGAGGACCGGUACGGCCGCCACUCGUACGGAACUGGCUAAUUUAUGGAAUGGUGA [IV] | 377 | 198 | 313 | 350 | 213
22 | UAGUUGCCGGUUUGUAGGCUUCGGCAGUGGGAGGAUAUGUUGACCGACAGAAGGCCCAGUGAUGUUGGGCGAUUGGCGGUGAGAU [Antebear] | 50 | 78.3 | 145 | – | 123
23 | AAUAAUGAUGUUUAGGAAAGUAAAAUGGAAGGAGCGUGCGAAAGCACAGGUAGGUCGCCAGUGAUGUUGGAACCUGAGCAUCAAA [#SwitchBubble 19 #K4Late] | 907 | 633 | 836 | 925 | 757
24 | CUACAUGCACAGGAGUGAUGUUUAUGGGCUCGAGGACCGGUACGGCCGCCACUCGUUAUGGCACGCAGUAGAUAUAGGCGAGGAA [theeternabot_sameState_KL_Trp_A_41] | 615 | 381 | 605 | 448 | 871
25 | GUACGCUCUCGAGUGAUGUUCGGUAAUCGCUAGGAUAUCGCUUUUGCGAGAAGGAGCGGAAUGAGGAAACUCGUUCUGAGUGUAC [FMN A 22] | 452 | 295 | 447 | 325 | 476
26 | UGUUAUGUAUCAGGAUAUUAGUGAUGUUUGUUUAUGUUAGUGAUGUUGAUAUUUGUUUUAUGUAUUUAAGAAGGGAUUGAGAAGU [ffcfxmullin] | 62.1 | 21.4 | 45.6 | 30.2 | 49.3
27 | GGUUUAUAGGAGGAUACCAGUACGAAUAAAGUACAUUAAUAGUAGAGUGAUGUUCUAAAGUACCCUUGGCAGCUUAGAUUAAGUU [ExTheophylB.H] | 102 | 180 | 116 | 166 | 77.9
28 | UGACAUUGCUCAGAUACCAGACUUGAGGAACACCCAAGUGCCAAAUAAACGUACAUAAAAGUCCCUUGGCAGCUGAGCAAUGUCU [TheoBX 11] | 66 | 34.1 | 62.5 | 104 | 45.3
29 | GGGUGGCAGGCGGCCGCCACUCUGAGCAGCCAGUGAGUGAUGUUCGUGGCGGAAGAAUGUUCGUAGAGGACCGGGUUUGUUGUUC [Same State Tryptophan B GF 22] | 472 | 245 | 297 | 432 | 337
30 | CGCAGUGAUGUUGCUAUUAUUCUUGGUUAACGAGGACCGGUACGGCCGCCACUCGAUUUCUAUCUAAUCCAGUGUUUUUUUGAGU [JR_ExcTryptoA_Sub003] | 301 | 377 | 396 | 458 | 204
31 | CAGAACUUGUAUACAGGGUAUGUAAGAGAUACCAGUCAAAUUAAAGACCCUUGGCAGCUCAGGCGAGUGAUGUUCGCAGGCUAAC [Exclusion Theophylline A GF 18] | 103 | 118 | 115 | 116 | 99
32 | GGACCACCAGUGAUGUUGGAGAUAAACUCCAAGGAUAUGACGAAAGUCAGAAGGUGGUAAUAAGACGUCAAAGACGUCAGGUCCA [FmnA 20 #SwitchBubble #K4Early] | 372 | 116 | 187 | 209 | 178
33 | AAUAAUAGUUGAGCAGGCGUGGUCUGAGAUACCAGUGAUUUCGAUCACCCUUGGCAGCUCAGCAUGAGUGAUGUUCAUGCUAUUC [Theo A Ex t10] | 147 | 114 | 134 | 145 | 131
